Reference: patent US20190085323A1 (published 2019)
Substitutions are numbered along the chain they refer to.

What was measured:
[1] = target: HER2 on the surface of N87 gastric cancer cells (human) (UniProt P04626); test: flow cytometry on N87 cells, 0.5 nM scFv detected with AL1-RFP
[2] = target: HER2 on the surface of N87 gastric cancer cells (human) (UniProt P04626); test: cell-based or functional assay
[3] = target: T1, HER2 on the surface of N87 gastric cancer cells (human, UniProt P04626 23-1255); test: cell-based or functional assay
[4] = target: T1, HER2 on the surface of N87 gastric …; test: flow cytometry on N87 cells, 0.5 nM scFv detected with AL1-RFP
[5] = target: T2, HER2-ECD (recombinant extracellular domain of human epidermal growth factor receptor 2) (human, UniProt P04626 23-652); test: ELISA, IgG1 titrated on immobilized HER2-ECD
T2 construct: extracellular domain; Recombinant HER2-ECD coated on ELISA plates

B1: 29TYL#10 source scFv (scFv, V domains shown, not shown: large carriers)
VH: EVQLVESGGGLVQPGGSLRLSCKASGYTFTDGSMHWVRQAPGKGLEWVAYINPYFGDTYYADSVKGRFTISADTSKNTAYLQMNSLRAEDTAVYYCARGWIDYWGQGTLVTVSS
VL: DIQMTQSPSSLSASVGDRVTITCKSNQNLLLSNGRTFLYWYQQKPGKAPKLLIYGTSYLYSGVPSRFSGSGSGTDFTLTISSLQPEDFATYYCFQANHLPWTFGQGTKVEIKR
modifications: VL-linker-VH scFv; linker and E-tag not given
Question: B1 was tested. Which MFI [1] did it give?
Answer: 444

Question: What about the % cell viability (AL1) [2] of the same binder?
Answer: 79.9%

Question: And the % cell viability (AL2) [2]?
Answer: 64.8%

B2: 30CHS-12 source scFv (scFv)
chain: DIQMTQSPSSLSASVGDRVTITCKSNQNLLDSGNQGTFLNWYQQKPGKAPKLLIFGTSHLYSGVPSRFSGSGSGTDFTLTISSLQPEDFATYYCSQSTDLPFTFGQGTKVEIKREVQLVESGGGLVQPGGSLRLSCAASGFTISDYWIHWVRQAPGKGLEWVAGINPYYGVTVYADSVKGRFTISADTSKNTAYLQMNSLRAEDTAVYYCARGGVLDYWGQGTLVTVSSASAAA
Question: Which results are given for B2?
Answer: % cell viability (AL1) [3]: 64.9%; % cell viability (AL2) [3]: 61.7%; MFI [4]: 198

B3: 35WYK-9 source scFv (scFv)
chain: DIQMTQSPSSLSASVGDRVTITCKSNQNLLLSNGRTFLHWYQQKPGKAPKLLIFDVSNLYSGAPSRFSGSGSGTDFTLTISSLQPDDFATYYCSQTSRFPWTFGQGTKVEIKREVQLVESGGGLVQPGGSLRLSCKASGYTFSHWGMHWVRQAPGKGLEWVAGIYPYFGNTYYADSVKGRFTISADTSKNTAYLQMNSLRAEDTAVYYCARGLLDYWGQGTLVTVSSASAAA
Question: How did the “% cell viability (AL1)” value [3] turn out when B3 was run?
Answer: 84.7%

Question: What about the “% cell viability (AL2)” value [3] of the same binder?
Answer: 80.9%

Question: What about the MFI [4] of the same binder?
Answer: 265

B4: 35WYK-16 source scFv (scFv)
chain: DIQMTQSPSSLSASVGDRVTITCKSNQNLLLSNGRTFLYWYQQKPGKAPKLLIYDVSDLYSGVPSRFSGSGSGTDFTLTISSLQPEDFATYYCFQGNNFPYTFGQGTKVEIKREVQLVESGGGLVQPGGSLRLSCKASGYTFGTSWMHWVRQAPGKGLEWVAGITPYYGLTFYADSVKGRFTISADTSKNTAYLQMNSLRAEDTAVYYCARGNLDYWGQGTLVTVSSASAAA
Question: With B4 as the binder, how does the “% cell viability (AL1)” value [3] read?
Answer: 72.2%

Question: What about the “% cell viability (AL2)” value [3] of the same binder?
Answer: 41.4%

Question: What about the MFI [4] of the same binder?
Answer: 299

B5: 29TYL#1 source scFv (scFv)
chain: DIQMTQSPSSLSASVGDRVTITCKSNQNLLLSNGWTFLNWYQQKPGKAPKLLISRISDLYSGVPSRFSGSGSGTDFTLTISSLQPEDFATYYCFQASDFPYTFGQGTKVEIKREVQLVESGGGLVQPGGSLRLSCKASGYTFSTGSMHWVRQAPGKGLEWVAHINPHFGLTLYADSVKGRFTISADTSKNTAYLQMNSLRAEDTAVYYCAGSGFDYWGQGTLVTVSSASAAA
Question: How did the “% cell viability (AL1)” value [3] turn out when B5 was run?
Answer: 67.5%

Question: And the “% cell viability (AL2)” value [3]?
Answer: 32.7%

Question: And the MFI [4]?
Answer: 491

B6: 31YCM#3 source scFv (scFv)
chain: DIQMTQSPSSLSASVGDRVTITCKSNQNLLISGNQWTFLNWYQQKPGKAPKLLIYDVSRLYSGVPSRFSGSGSGTDFTLTISSLQPEDFATYYCYQGSDFPGTFGQGTKVEIKREVQLVESGGGLVQPGGSLRLSCKASGYTFARSGMHWVRQAPGKGLEWVAGISPNYGLTHYADSVKGRFTISADTSKNTAYLQMNSLRAEDTAVYYCARGFGVLDYWGQGTLVTVSSASAAA
Question: For B6, which “% cell viability (AL1)” value [3] is on record?
Answer: 96.4%

Question: And the “% cell viability (AL2)” value [3]?
Answer: 91.5%

Question: And the MFI [4]?
Answer: 177

B7: 31YCM#5 source scFv (scFv)
chain: DIQMTQSPSSLSASVGDRVTITCKSNQNLLDSHGWTYLHWYQQKPGKAPKLLIYDASNLYSGVPSRFSGSGSGTDFTLTISSLQPEDFATYYCSQSYRLPYTFGQGTKVEIKREVQLVESGGGLVQPGGSLRLSCKASGYTFGGSYMHWVRQAPGKGLEWVARIYPHYGYTYYADSVKGRFTISADTSKNTAYLQMNSLRAEDTAVYYCARGDDHFDYWGQGTLVTVSSASAAA
Question: Which “% cell viability (AL1)” value [3] does the source give for B7 here?
Answer: 89.5%

Question: What about the “% cell viability (AL2)” value [3] of the same binder?
Answer: 71.8%

Question: What about the MFI [4] of the same binder?
Answer: 165

B8: 30CHS-13 source scFv (scFv)
chain: DIQMTQSPSSLSASVGDRVTITCKSNQNLLDSGNQRTYLNWYQQKPGKAPKLLIYHTSRLYSGVPSRFSGSGSGTDFTLTISSLQPEDFATYYCSQTFRHPGTFGQGTKVEIKREVQLVESGGGLVQPGGSLRLSCKASGYTFGHYSMFWVRQAPGKGLEWVASIYPHYGHTYYADSVKGRFTISADTSKNTAYLQMNSLRAEDTAVYYCARGHWLDYWGQGTLVTVSSASAAA
Question: With B8 as the binder, how does the “% cell viability (AL1)” value [3] read?
Answer: 75.8%

Question: And the “% cell viability (AL2)” value [3]?
Answer: 77.7%

Question: What about the MFI [4] of the same binder?
Answer: 93

B9: 30CHS-41 source scFv (scFv)
chain: DIQMTQSPSSLSASVGDRVTITCKSNQNLLDSGHQRTYLNWYQQKPGKAPKLLIYHTSLLYSGVPSRFSGSGSGTDFTLTISSLQPEDFATYYCSQTFRHPGTFGQGTKVEIKREVQLVESGGGLVQPGGSLRLSCKASGYTFTHWGMHWVRQAPGKGLEWVARINPYYGLTHYADSVKGRFTISADTSKNTAYLQMNSLRAEDTAVYYCARGHWLDYWGQGTLVTVSSASAAA
Question: Which “% cell viability (AL1)” value [3] does the source give for B9 here?
Answer: 77.6%

Question: What about the “% cell viability (AL2)” value [3] of the same binder?
Answer: 71.6%

Question: And the MFI [4]?
Answer: 153

B10: 35CPT-9 source scFv (scFv)
chain: DIQMTQSPSSLSASVGGRVTITCKSNQNLLDSYGRTYLYWYQQKPGKAPKLLISGTSGLYSGVPSRFSGSGSGTDFTLTISSLQPEDFATYYCFQGYDYPFTFGQGTKVEIKREVQLVESGGGLVQPGGSLRLSCKASGYTFGDYGMHWVRQAPGKGLEWVAHIAPNDGITHYADSVKGRFTISADTSKNTAYLQMNSLRAEDTAVYYCARGYGWYDHVMDYWGQGTLVTVSSASAAA
Question: Which results are given for B10?
Answer: % cell viability (AL1) [3]: 69.8%; % cell viability (AL2) [3]: 17.9%; MFI [4]: 287

B11: 30CHS-12 IgG1 (antibody, V domains shown)
VH: EVQLVESGGGLVQPGGSLRLSCAASGFTISDYWIHWVRQAPGKGLEWVAGINPYYGVTVYADSVKGRFTISADTSKNTAYLQMNSLRAEDTAVYYCARGGVLDYWGQGTLVTVSS
VL: DIQMTQSPSSLSASVGDRVTITCKSNQNLLDSGNQGTFLNWYQQKPGKAPKLLIFGTSHLYSGVPSRFSGSGSGTDFTLTISSLQPEDFATYYCSQSTDLPFTFGQGTKVEIKR
Question: Which EC50 [5] does the source give for B11 here?
Answer: 41 ng/mL

B12: 31YCM#5 IgG1 (antibody, V domains shown)
VH: EVQLVESGGGLVQPGGSLRLSCKASGYTFGGSYMHWVRQAPGKGLEWVARIYPHYGYTYYADSVKGRFTISADTSKNTAYLQMNSLRAEDTAVYYCARGDDHFDYWGQGTLVTVSS
VL: DIQMTQSPSSLSASVGDRVTITCKSNQNLLDSHGWTYLHWYQQKPGKAPKLLIYDASNLYSGVPSRFSGSGSGTDFTLTISSLQPEDFATYYCSQSYRLPYTFGQGTKVEIKR
notes: also called 3 YCM #5
Question: How did the EC50 [5] turn out when B12 was run?
Answer: 6.3 ng/mL

B13: 2835-28 IgG1 (antibody, V domains shown)
VH: B1 VH
VL: B1 VL
Question: For B13, which EC50 [5] is on record?
Answer: 3.9 ng/mL

B14: 30CHS-13 IgG1 (antibody, V domains shown)
VH: EVQLVESGGGLVQPGGSLRLSCKASGYTFGHYSMFWVRQAPGKGLEWVASIYPHYGHTYYADSVKGRFTISADTSKNTAYLQMNSLRAEDTAVYYCARGHWLDYWGQGTLVTVSS
VL: B11 VL with G36R, F38Y, F55Y, G56H, H59R, S97T, T98F, D99R, L100H, F102G
Question: Which EC50 [5] does the source give for B14 here?
Answer: 41 ng/mL

B15: 30CHS-41 IgG1 (antibody, V domains shown)
VH: B14 VH with G30T, Y32W, S33G, F35H, S50R, Y52N, H54Y, H57L, Y59H
VL: DIQMTQSPSSLSASVGDRVTITCKSNQNLLDSGHQRTYLNWYQQKPGKAPKLLIYHTSLLYSGVPSRFSGSGSGTDFTLTISSLQPEDFATYYCSQTFRHPGTFGQGTKVEIKR
Question: Which EC50 [5] does the source give for B15 here?
Answer: 5 ng/mL

B16: 35CPT-9 IgG1 (antibody, V domains shown)
VH: EVQLVESGGGLVQPGGSLRLSCKASGYTFGDYGMHWVRQAPGKGLEWVAHIAPNDGITHYADSVKGRFTISADTSKNTAYLQMNSLRAEDTAVYYCARGYGWYDHVMDYWGQGTLVTVSS
VL: DIQMTQSPSSLSASVGGRVTITCKSNQNLLDSYGRTYLYWYQQKPGKAPKLLISGTSGLYSGVPSRFSGSGSGTDFTLTISSLQPEDFATYYCFQGYDYPFTFGQGTKVEIKR
Question: How did the EC50 [5] turn out when B16 was run?
Answer: 31.7 ng/mL

B17: 35WYK-9 IgG1 (antibody, V domains shown)
VH: B1 VH with T30S, D31H, G32W, S33G, Y50G, N52Y, D57N, W100L, I101L
VL: DIQMTQSPSSLSASVGDRVTITCKSNQNLLLSNGRTFLHWYQQKPGKAPKLLIFDVSNLYSGAPSRFSGSGSGTDFTLTISSLQPDDFATYYCSQTSRFPWTFGQGTKVEIKR
Question: B17 was tested. Which EC50 [5] did it give?
Answer: 5.7 ng/mL

B18: 35WYK-16 IgG1 (antibody, V domains shown)
VH: EVQLVESGGGLVQPGGSLRLSCKASGYTFGTSWMHWVRQAPGKGLEWVAGITPYYGLTFYADSVKGRFTISADTSKNTAYLQMNSLRAEDTAVYYCARGNLDYWGQGTLVTVSS
VL: B1 VL with G55D, T56V, Y58D, A96G, H98N, L99F, W101Y
Question: B18 was tested. Which EC50 [5] did it give?
Answer: 6.2 ng/mL

B19: 29TYL#1 IgG1 (antibody, V domains shown)
VH: B1 VH with T30S, D31T, Y50H, Y54H, D57L, Y59L, R98G, G99S, W100G, I101F
VL: B1 VL with R35W, Y39N, Y54S, G55R, T56I, Y58D, N97S, H98D, L99F, W101Y
Question: With B19 as the binder, how does the EC50 [5] read?
Answer: 4.1 ng/mL

B20: 29TYL#10 IgG1 (antibody, V domains shown)
VH: B1 VH
VL: B1 VL
Question: For B20, which EC50 [5] is on record?
Answer: 3.8 ng/mL

B21: 31YCM#3 IgG1 (antibody, V domains shown)
VH: EVQLVESGGGLVQPGGSLRLSCKASGYTFARSGMHWVRQAPGKGLEWVAGISPNYGLTHYADSVKGRFTISADTSKNTAYLQMNSLRAEDTAVYYCARGFGVLDYWGQGTLVTVSS
VL: DIQMTQSPSSLSASVGDRVTITCKSNQNLLISGNQWTFLNWYQQKPGKAPKLLIYDVSRLYSGVPSRFSGSGSGTDFTLTISSLQPEDFATYYCYQGSDFPGTFGQGTKVEIKR
Question: With B21 as the binder, how does the EC50 [5] read?
Answer: 7.3 ng/mL
